According to US20230056992A1 (AGGAMIN, published 2023):

T1: endogenous sEng in pre-eclamptic patient serum (human, UniProt P17813 26-586)
T1 construct: Native protein in patient serum; the isoform or cleavage product is not defined; also called circulating sEng
T1 sequence (looked up): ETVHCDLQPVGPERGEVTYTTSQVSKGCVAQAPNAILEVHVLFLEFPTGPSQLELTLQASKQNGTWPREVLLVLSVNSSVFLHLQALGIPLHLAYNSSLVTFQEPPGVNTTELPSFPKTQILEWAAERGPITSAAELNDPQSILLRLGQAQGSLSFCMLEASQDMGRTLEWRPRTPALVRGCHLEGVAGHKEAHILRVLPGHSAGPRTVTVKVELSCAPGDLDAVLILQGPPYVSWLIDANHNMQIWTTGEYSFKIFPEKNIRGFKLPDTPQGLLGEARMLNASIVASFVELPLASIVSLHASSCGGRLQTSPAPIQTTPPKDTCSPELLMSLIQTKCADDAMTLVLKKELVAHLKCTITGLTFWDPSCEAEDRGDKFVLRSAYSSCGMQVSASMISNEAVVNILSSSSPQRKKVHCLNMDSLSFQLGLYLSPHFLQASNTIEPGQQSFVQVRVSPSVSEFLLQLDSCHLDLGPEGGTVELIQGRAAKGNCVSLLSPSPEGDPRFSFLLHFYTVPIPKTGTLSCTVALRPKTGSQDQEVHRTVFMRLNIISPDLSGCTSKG

T2: purified recombinant human sEng (human Endoglin ectodomain residues 26 to 586 with C-terminal 6x His tag, … (human, UniProt P17813 26-586))
T2 construct: range 26-586; also called spiked sEng; recombinant human sEng (amino acid residues 26-586)
T2 sequence: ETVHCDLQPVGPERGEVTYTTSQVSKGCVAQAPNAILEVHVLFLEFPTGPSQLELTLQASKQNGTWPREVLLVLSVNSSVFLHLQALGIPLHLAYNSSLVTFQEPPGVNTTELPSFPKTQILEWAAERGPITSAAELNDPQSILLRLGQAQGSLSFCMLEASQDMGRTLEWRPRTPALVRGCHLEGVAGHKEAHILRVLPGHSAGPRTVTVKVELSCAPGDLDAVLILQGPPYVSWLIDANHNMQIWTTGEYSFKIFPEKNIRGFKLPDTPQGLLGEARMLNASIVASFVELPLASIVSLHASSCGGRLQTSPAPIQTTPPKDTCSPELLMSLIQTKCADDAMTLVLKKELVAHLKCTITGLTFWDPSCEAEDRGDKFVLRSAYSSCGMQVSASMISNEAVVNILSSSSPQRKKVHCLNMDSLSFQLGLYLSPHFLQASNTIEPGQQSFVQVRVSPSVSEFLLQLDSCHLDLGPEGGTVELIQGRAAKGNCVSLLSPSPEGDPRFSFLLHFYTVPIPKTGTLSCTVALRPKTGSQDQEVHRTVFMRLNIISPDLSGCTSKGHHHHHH


How the values were obtained:
[1] = target: T3, endogenous sFlt-1 in pre-eclamptic patient serum (human, UniProt P17948-2 27-687, limits assumed); assay: 0.1 mL column of antibody-conjugated beads, pre-eclamptic patient serum
T3 construct: Native protein in patient serum; the isoform is not defined; also called circulating sFlt-1
T3 sequence (P17948 other isoform, or with tags, fused parts or gaps limits assumed): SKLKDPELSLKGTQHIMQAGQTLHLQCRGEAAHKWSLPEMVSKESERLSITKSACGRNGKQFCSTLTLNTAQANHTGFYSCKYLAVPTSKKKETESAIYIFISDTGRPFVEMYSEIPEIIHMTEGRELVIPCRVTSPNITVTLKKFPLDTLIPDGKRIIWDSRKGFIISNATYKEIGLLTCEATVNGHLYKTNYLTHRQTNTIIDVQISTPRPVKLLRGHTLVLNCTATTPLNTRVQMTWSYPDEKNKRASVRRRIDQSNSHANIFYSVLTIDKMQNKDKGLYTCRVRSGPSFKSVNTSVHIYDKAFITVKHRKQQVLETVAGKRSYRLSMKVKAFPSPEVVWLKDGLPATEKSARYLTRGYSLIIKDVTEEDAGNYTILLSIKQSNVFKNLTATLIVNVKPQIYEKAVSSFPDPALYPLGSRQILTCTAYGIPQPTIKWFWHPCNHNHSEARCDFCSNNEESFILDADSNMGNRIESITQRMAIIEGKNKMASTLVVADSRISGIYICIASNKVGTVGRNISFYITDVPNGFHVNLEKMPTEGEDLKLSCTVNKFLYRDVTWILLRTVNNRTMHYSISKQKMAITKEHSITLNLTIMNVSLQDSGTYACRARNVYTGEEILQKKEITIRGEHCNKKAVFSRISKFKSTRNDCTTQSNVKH
Protocol: (§1) Circulating sEng and sFlt-1 proteins are elevated in pre-eclampsia patients and are postulated to be major causal factors of disease onset and progression. To test whether a cENG10/AG10B dual device is capable of removing these endogenous sEng and sFlt-1 proteins from patient serum, micro-scale 0.1 mL columns conjugated with cENG10, AG10B, or both cENG10 and AG10B MAbs were prepared. cENG10 column specifically removed>90% of endogenous sEng in pre-eclamptic serum but not endogenous sFlt-1, and the AG10B column specifically removed>90% of endogenous sFlt-1 in pre-eclamptic serum but not endogenous sEng. The cENG10/AG10B dual device column, in which a mixture of the two antibodies at 1 mg each per mL beads were conjugated simultaneously, removed>90% of both sEng and sFlt-1 proteins.

[2] = target: T1, endogenous sEng in pre-eclamptic …; assay: as above
Protocol: as §1

[3] = target: T2, purified recombinant human sEng (human …); assay: 1 mL column, 0.2 mg MAb per mL Sepharose beads, flow rates 0.25-2.00 mL/min; input vs flow-through
Protocol: A 1-ml cENG10 device column was evaluated for depletion of spiked sEng in horse serum. For each column, 0.2 mg cENG10 or AG10B MAb was covalently conjugated to 1 mL of CNBr-activated Sepharose 4FF beads for 0.2 mg per mL beads ratio. For each test, 10 mL of serum containing 60 ng/mL of sEng, median concentration in severe pre-eclampsia patients, was applied for one cycle over the column. The first 1 ml containing pre-equilibration buffer was not collected in the flow-through (FT) fraction and the last 1 mL of input remaining in column was chased with 1 CV of PBS buffer and pooled into the FT fraction. The % sEng depletion was calculated by dividing the difference in concentration between input and FT by input concentration: […]

binding result [1]	binding result [2]	Binder	binding result [3]
no binding		chimeric anti-sEng antibody cENG10 (antibody, human IgG1, kappa, N297Q, V domains shown, Chimeric mouse/human IgG1 kappa with N300Q; also called anti-human sEng MAb; cENG10 column) VH: EVQLEQSGPEVVKPGTSVKISCKTSGYTITEHTLHWIKQNQGKSLEWIGGINFDNGGTTYRQKFKDKATLTVDKSSSTAFMELRSLTSDDSAVYFCARRAYYYGSAFDYWGQGTTLTVSS VL: ENVLTQSPAIMSASLGEKVTMTCRASSSVNYVYWYQQKSDASPKLWIYYTSNLAPGVPARFSGSGSGNSYSLTISSMEGEDAATYYCQQFISFPYTFGGGTKLEIKR	
	no binding	chimeric anti-sFlt-1 antibody AG10B (antibody, V domains shown, Chimeric mouse/human IgG1 kappa with N298Q; It served as the negative control for sEng depletion; also called AGB10; AB10B) VH: QVQLQQSGPELVKPGASVKMSCKASGYTFTDYVISWVKQRTGQGLEWIGEIYPGSGSIYYNEKFKGKATLTADTSSNTAYMQLSSLTFEDSAVIFCARGHYYGYFDYWGQGTTLTVSS VL: DIVMTQSHKFMSTSVGDRVSITCKASQDVTITVAWYQQKPGQSPKLLIYSASYRYTGVPDRFTGSGSGTDFTFTISSVQAEDLAVYYCQQHYTTPWTFGGGTKLEIKR	no binding (tested: 60 ng/mL sEng in 10 mL horse serum)
